Source: patent US4843003

Test system: Exonuclease III (Escherichia coli)
Experiment: cleavage_in_vitro
Settings: 37 C, 66 mM Tris-HCl pH 8, 0.66 mM MgCl2

For “Bacteriophage lambda DNA SstI terminal fragments (24.8 kb and 22.6 kb), 5' 12-nt protruding end”, the activity (nucleotides/min) (digested from 5' protruding end, not from SstI 3' protruding end, 14.4 kb removed per end in 32 min) was 450.
Work on “M13 mp18 with 4.5 kb EcoRI Drosophila Gart insert, SalI/SphI cut” yielded an activity (nucleotides/min) (after 25 s delay, one-way digestion, no sequence preference seen) of 450.
